# Changes are numbered by the printed parent chain.
# B1: B8.2.4 TCR mutant β97V-T (TCR, V domains shown)
# V domain 1: AQKITQTQPGMFVQEKEAVTLDCTYDTSDPSYGLFWYKQPSSGEMIFLIYQGSYDQQNATEGRYSLNFQKARKSANLVISASQLGDSAMYFCAMRERTGTASKLTFGTGTRLQVTL
# V domain 2: DVKVTQSSRYLVKRTGEKVFLECVQDMDHENMFWYRQDPGLGLRLIYFSYDVKMKEKGDIPEGYSVSREKKERFSLILESASTNQTSMYLCASSQTTPPQHFGDGTRLSILE
# B2: B8.2.4 TCR mutant β95Q-G (TCR, V domains shown)
# V domain 1: B1 V domain 1
# V domain 2: B1 V domain 2 with Q95G, T97V
# B3: B8.2.4 TCR mutant β98P-N (TCR, V domains shown)
# V domain 1: B1 V domain 1
# V domain 2: B1 V domain 2 with T97V, P98N
# B4: B8.2.4 TCR mutant β95Q-E (TCR, V domains shown)
# V domain 1: B1 V domain 1
# V domain 2: B1 V domain 2 with Q95E, T97V
# B5: B8.2.4 TCR mutant β98P-K (TCR, V domains shown)
# V domain 1: B1 V domain 1
# V domain 2: B1 V domain 2 with T97V, P98K
# B6: B8.2.4 TCR mutant β98P-R (TCR, V domains shown)
# V domain 1: B1 V domain 1
# V domain 2: B1 V domain 2 with T97V, P98R
# B7: B8.2.4 TCR mutant β97V-W (TCR, V domains shown)
# V domain 1: B1 V domain 1
# V domain 2: B1 V domain 2 with T97W
# B8: B8.2.4 TCR mutant β95Q-H (TCR, V domains shown)
# V domain 1: B1 V domain 1
# V domain 2: B1 V domain 2 with Q95H, T97V
# B9: B8.2.4 TCR mutant β98P-D (TCR, V domains shown)
# V domain 1: B1 V domain 1
# V domain 2: B1 V domain 2 with T97V, P98D
# B10: B8.2.4 TCR mutant β96T-A (TCR, V domains shown)
# V domain 1: B1 V domain 1
# V domain 2: B1 V domain 2 with T96A, T97V
# B11: B8.2.4 TCR mutant β95Q-W (TCR, V domains shown)
# V domain 1: B1 V domain 1
# V domain 2: B1 V domain 2 with Q95W, T97V
# B12: B8.2.4 TCR mutant β98P-C (TCR, V domains shown)
# V domain 1: B1 V domain 1
# V domain 2: B1 V domain 2 with T97V, P98C
# B13: B8.2.4 TCR mutant β98P-E (TCR, V domains shown)
# V domain 1: B1 V domain 1
# V domain 2: B1 V domain 2 with T97V, P98E
# B14: B8.2.4 TCR mutant β98P-F (TCR, V domains shown)
# V domain 1: B1 V domain 1
# V domain 2: B1 V domain 2 with T97V, P98F
# B15: B8.2.4 TCR mutant β98P-T (TCR, V domains shown)
# V domain 1: B1 V domain 1
# V domain 2: B1 V domain 2 with T97V, P98T
# B16: B8.2.4 TCR mutant β95Q-V (TCR, V domains shown)
# V domain 1: B1 V domain 1
# V domain 2: B1 V domain 2 with Q95V, T97V
# B17: B8.2.4 TCR mutant β98P-G (TCR, V domains shown)
# V domain 1: B1 V domain 1
# V domain 2: B1 V domain 2 with T97V, P98G
# B18: B8.2.4 TCR mutant β95Q-P (TCR, V domains shown)
# V domain 1: B1 V domain 1
# V domain 2: B1 V domain 2 with Q95P, T97V
# B19: B8.2.4 TCR mutant β96T-C (TCR, V domains shown)
# V domain 1: B1 V domain 1
# V domain 2: B1 V domain 2 with T96C, T97V
# B20: B8.2.4 TCR mutant β95Q-Y (TCR, V domains shown)
# V domain 1: B1 V domain 1
# V domain 2: B1 V domain 2 with Q95Y, T97V
# B21: B8.2.4 TCR mutant β95Q-F (TCR, V domains shown)
# V domain 1: B1 V domain 1
# V domain 2: B1 V domain 2 with Q95F, T97V
# B22: B8.2.4 TCR mutant β95Q-K (TCR, V domains shown)
# V domain 1: B1 V domain 1
# V domain 2: B1 V domain 2 with Q95K, T97V
# B23: B8.2.4 TCR mutant β98P-W (TCR, V domains shown)
# V domain 1: B1 V domain 1
# V domain 2: B1 V domain 2 with T97V, P98W
# B24: B8.2.4 TCR mutant β96T-D (TCR, V domains shown)
# V domain 1: B1 V domain 1
# V domain 2: B1 V domain 2 with T96D, T97V
# B25: B8.2.4 TCR mutant β98P-I (TCR, V domains shown)
# V domain 1: B1 V domain 1
# V domain 2: B1 V domain 2 with T97V, P98I
# B26: B8.2.4 TCR mutant β98P-A (TCR, V domains shown)
# V domain 1: B1 V domain 1
# V domain 2: B1 V domain 2 with T97V, P98A
# B27: B8.2.4 TCR mutant β95Q-A (TCR, V domains shown)
# V domain 1: B1 V domain 1
# V domain 2: B1 V domain 2 with Q95A, T97V
# B28: B8.2.4 TCR mutant β97V-Y (TCR, V domains shown)
# V domain 1: B1 V domain 1
# V domain 2: B1 V domain 2 with T97Y
# B29: B8.2.4 TCR mutant β95Q-M (TCR, V domains shown)
# V domain 1: B1 V domain 1
# V domain 2: B1 V domain 2 with Q95M, T97V
# B30: B8.2.4 TCR mutant β95Q-D (TCR, V domains shown)
# V domain 1: B1 V domain 1
# V domain 2: B1 V domain 2 with Q95D, T97V
# B31: B8.2.4 TCR mutant β95Q-T (TCR, V domains shown)
# V domain 1: B1 V domain 1
# V domain 2: B1 V domain 2 with Q95T, T97V
# B32: B8.2.4 TCR mutant β98P-V (TCR, V domains shown)
# V domain 1: B1 V domain 1
# V domain 2: B1 V domain 2 with T97V, P98V
# B33: B8.2.4 TCR mutant β98P-S (TCR, V domains shown)
# V domain 1: B1 V domain 1
# V domain 2: B1 V domain 2 with T97V, P98S
# B34: B8.2.4 TCR mutant β95Q-R (TCR, V domains shown)
# V domain 1: B1 V domain 1
# V domain 2: B1 V domain 2 with Q95R, T97V
# B35: B8.2.4 TCR mutant β98P-Y (TCR, V domains shown)
# V domain 1: B1 V domain 1
# V domain 2: B1 V domain 2 with T97V, P98Y
# B36: B8.2.4 TCR mutant β98P-Q (TCR, V domains shown)
# V domain 1: B1 V domain 1
# V domain 2: B1 V domain 2 with T97V, P98Q
# B37: B8.2.4 TCR mutant β95Q-N (TCR, V domains shown)
# V domain 1: B1 V domain 1
# V domain 2: B1 V domain 2 with Q95N, T97V
# B38: B8.2.4 TCR mutant β95Q-L (TCR, V domains shown)
# V domain 1: B1 V domain 1
# V domain 2: B1 V domain 2 with Q95L, T97V
# B39: B8.2.4 TCR mutant β95Q-I (TCR, V domains shown)
# V domain 1: B1 V domain 1
# V domain 2: B1 V domain 2 with Q95I, T97V
# B40: B8.2.4 TCR mutant β98P-H (TCR, V domains shown)
# V domain 1: B1 V domain 1
# V domain 2: B1 V domain 2 with T97V, P98H
# B41: B8.2.4 TCR mutant β95Q-C (TCR, V domains shown)
# V domain 1: B1 V domain 1
# V domain 2: B1 V domain 2 with Q95C, T97V
# B42: B8.2.4 TCR mutant β98P-M (TCR, V domains shown)
# V domain 1: B1 V domain 1
# V domain 2: B1 V domain 2 with T97V, P98M
# B43: B8.2.4 TCR mutant β95Q-S (TCR, V domains shown)
# V domain 1: B1 V domain 1
# V domain 2: B1 V domain 2 with Q95S, T97V
# B44: B8.2.4 TCR mutant β98P-L (TCR, V domains shown)
# V domain 1: B1 V domain 1
# V domain 2: B1 V domain 2 with T97V, P98L
# Biological target: KRAS G13D antigen (G13D-RT6, SEQ ID NO: 20) loaded on Lovo-DPA0301:DPB0501 cells (human)
# Assay: cell-based or functional assay
row,Binder,TCR Mut RLU/WT RLU
1,B1,0.98 ratio
2,B2,1.03 ratio
3,B3,0.41 ratio
4,B4,0.81 ratio
5,B5,0.47 ratio
6,B6,0.73 ratio
7,B7,0.52 ratio
8,B8,0.68 ratio
9,B9,0.8 ratio
10,B10,0.77 ratio
11,B11,0.88 ratio
12,B12,1.11 ratio
13,B13,0.99 ratio
14,B14,0.96 ratio
15,B15,0.47 ratio
16,B16,0.76 ratio
17,B17,0.73 ratio
18,B18,0.21 ratio
19,B19,0.78 ratio
20,B20,0.92 ratio
21,B21,0.34 ratio
22,B22,0.3 ratio

row,Binder,TCR Mut RLU/WT RLU
1,B23,0.81 ratio
2,B24,0.28 ratio
3,B25,0.33 ratio
4,B26,0.5 ratio
5,B27,0.86 ratio
6,B28,0.54 ratio
7,B29,0.99 ratio
8,B30,0.6 ratio
9,B31,0.59 ratio
10,B32,0.63 ratio
11,B33,0.94 ratio
12,B34,0.43 ratio
13,B35,0.25 ratio
14,B36,0.45 ratio
15,B37,0.6 ratio
16,B38,0.64 ratio
17,B39,0.74 ratio
18,B40,0.6 ratio
19,B41,1.14 ratio
20,B42,0.83 ratio
21,B43,0.61 ratio
22,B44,0.67 ratio
